B1: GpH7-A5/GpH7-B3 variant S239_06M/GpL16-k0 (antibody, human IgG1, kappa)
heavy 1: not shown
heavy 2: not shown
light: DIVMTQSPLSLPVTPGEPASISCQASESLVHSNRNTYLHWYLQKPGQSPQLLIYKVSNRFSGVPDRFSGSGSGTDFTLKISRVEAEDVGVYYCSQNTHVPPTFGQGTKVEIERTVAAPSVFIFPPSDEQLKSGTASVVCLLNNFYPREAKVQWKVDNALQSGNSQESVTEQDSKDSTYSLSSTLTLSKADYEKHKVYACEVTHQGLSSPVTKSFNRGEC
notes: He Ab; copies: 1 + 1 + 2
B2: GpH7-A5/GpH7-B3 variant S298_12R/GpL16-k0 (antibody, human IgG1, kappa)
heavy 1: not shown
heavy 2: not shown
light: B1 light
notes: He Ab; copies: 1 + 1 + 2
B3: GpH7-A5/GpH7-B3 variant S324_16H/GpL16-k0 (antibody, human IgG1, kappa)
heavy 1: not shown
heavy 2: not shown
light: B1 light
notes: He Ab; copies: 1 + 1 + 2
B4: GpH7-A5/GpH7-B3 variant S239_10E/GpL16-k0 (antibody, human IgG1, kappa)
heavy 1: not shown
heavy 2: not shown
light: B1 light
notes: He Ab; copies: 1 + 1 + 2
B5: GpH7-A5/GpH7-B3 variant S298_14T/GpL16-k0 (antibody, human IgG1, kappa)
heavy 1: not shown
heavy 2: not shown
light: B1 light
notes: He Ab; copies: 1 + 1 + 2
B6: GpH7-A5/GpH7-B3 variant S324_11K/GpL16-k0 (antibody, human IgG1, kappa)
heavy 1: not shown
heavy 2: not shown
light: B1 light
notes: He Ab; copies: 1 + 1 + 2
B7: GpH7-A5/GpH7-B3 variant S239_09D/GpL16-k0 (antibody, human IgG1, kappa)
heavy 1: not shown
heavy 2: not shown
light: B1 light
notes: He Ab; copies: 1 + 1 + 2
B8: GpH7-A5/GpH7-B3 variant S298_09D/GpL16-k0 (antibody, human IgG1, kappa)
heavy 1: not shown
heavy 2: not shown
light: B1 light
notes: He Ab; copies: 1 + 1 + 2
B9: GpH7-A5/GpH7-B3 variant S324_04F/GpL16-k0 (antibody, human IgG1, kappa)
heavy 1: not shown
heavy 2: not shown
light: B1 light
notes: He Ab; copies: 1 + 1 + 2
B10: GpH7-A5/GpH7-B3 variant S298_06M/GpL16-k0 (antibody, human IgG1, kappa)
heavy 1: not shown
heavy 2: not shown
light: B1 light
notes: He Ab; copies: 1 + 1 + 2
B11: GpH7-A5/GpH7-B3 variant S298_18N/GpL16-k0 (antibody, human IgG1, kappa)
heavy 1: not shown
heavy 2: not shown
light: B1 light
notes: He Ab; copies: 1 + 1 + 2
B12: GpH7-A5/GpH7-B3 variant S298_01G/GpL16-k0 (antibody, human IgG1, kappa)
heavy 1: not shown
heavy 2: not shown
light: B1 light
notes: He Ab; copies: 1 + 1 + 2
B13: GpH7-A5/GpH7-B3 variant S267_06M/GpL16-k0 (antibody, human IgG1, kappa)
heavy 1: not shown
heavy 2: not shown
light: B1 light
notes: He Ab; copies: 1 + 1 + 2
B14: GpH7-A5/GpH7-B3 variant S267_19Q/GpL16-k0 (antibody, human IgG1, kappa)
heavy 1: not shown
heavy 2: not shown
light: B1 light
notes: He Ab; copies: 1 + 1 + 2
B15: GpH7-A5/GpH7-B3 variant S324_15Y/GpL16-k0 (antibody, human IgG1, kappa)
heavy 1: not shown
heavy 2: not shown
light: B1 light
notes: He Ab; copies: 1 + 1 + 2
B16: GpH7-A5/GpH7-B3 variant S267_02A/GpL16-k0 (antibody, human IgG1, kappa)
heavy 1: not shown
heavy 2: not shown
light: B1 light
notes: He Ab; copies: 1 + 1 + 2
B17: GpH7-A5/GpH7-B3 variant S324_07I/GpL16-k0 (antibody, human IgG1, kappa)
heavy 1: not shown
heavy 2: not shown
light: B1 light
notes: He Ab; copies: 1 + 1 + 2
B18: GpH7-A5/GpH7-B3 variant S239_14T/GpL16-k0 (antibody, human IgG1, kappa)
heavy 1: not shown
heavy 2: not shown
light: B1 light
notes: He Ab; copies: 1 + 1 + 2
B19: GpH7-A5/GpH7-B3 variant S239_18N/GpL16-k0 (antibody, human IgG1, kappa)
heavy 1: not shown
heavy 2: not shown
light: B1 light
notes: He Ab; copies: 1 + 1 + 2
B20: GpH7-A5/GpH7-B3 variant S324_02A/GpL16-k0 (antibody, human IgG1, kappa)
heavy 1: not shown
heavy 2: not shown
light: B1 light
notes: He Ab; copies: 1 + 1 + 2
B21: GpH7-A5/GpH7-B3 variant S239_08L/GpL16-k0 (antibody, human IgG1, kappa)
heavy 1: not shown
heavy 2: not shown
light: B1 light
notes: He Ab; copies: 1 + 1 + 2
B22: GpH7-A5/GpH7-B3 variant S298_15Y/GpL16-k0 (antibody, human IgG1, kappa)
heavy 1: not shown
heavy 2: not shown
light: B1 light
notes: He Ab; copies: 1 + 1 + 2
B23: GpH7-A5/GpH7-B3 variant S298_07I/GpL16-k0 (antibody, human IgG1, kappa)
heavy 1: not shown
heavy 2: not shown
light: B1 light
notes: He Ab; copies: 1 + 1 + 2
B24: GpH7-A5/GpH7-B3 variant S267_18N/GpL16-k0 (antibody, human IgG1, kappa)
heavy 1: not shown
heavy 2: not shown
light: B1 light
notes: He Ab; copies: 1 + 1 + 2
B25: GpH7-A5/GpH7-B3 variant S324_01G/GpL16-k0 (antibody, human IgG1, kappa)
heavy 1: not shown
heavy 2: not shown
light: B1 light
notes: He Ab; copies: 1 + 1 + 2
B26: GpH7-A5/GpH7-B3 variant S298_16H/GpL16-k0 (antibody, human IgG1, kappa)
heavy 1: not shown
heavy 2: not shown
light: B1 light
notes: He Ab; copies: 1 + 1 + 2
B27: GpH7-A5/GpH7-B3 variant S267_01G/GpL16-k0 (antibody, human IgG1, kappa)
heavy 1: not shown
heavy 2: not shown
light: B1 light
notes: He Ab; copies: 1 + 1 + 2
B28: GpH7-A5/GpH7-B3 variant S298_11K/GpL16-k0 (antibody, human IgG1, kappa)
heavy 1: not shown
heavy 2: not shown
light: B1 light
notes: He Ab; copies: 1 + 1 + 2
B29: GpH7-A5/GpH7-B3 variant S267_09D/GpL16-k0 (antibody, human IgG1, kappa)
heavy 1: not shown
heavy 2: not shown
light: B1 light
notes: He Ab; copies: 1 + 1 + 2
B30: GpH7-A5/GpH7-B3 variant S239_07I/GpL16-k0 (antibody, human IgG1, kappa)
heavy 1: not shown
heavy 2: not shown
light: B1 light
notes: He Ab; copies: 1 + 1 + 2
B31: GpH7-A5/GpH7-B3 variant S298_02A/GpL16-k0 (antibody, human IgG1, kappa)
heavy 1: not shown
heavy 2: not shown
light: B1 light
notes: He Ab; copies: 1 + 1 + 2
B32: GpH7-A5/GpH7-B3 variant S324_10E/GpL16-k0 (antibody, human IgG1, kappa)
heavy 1: not shown
heavy 2: not shown
light: B1 light
notes: He Ab; copies: 1 + 1 + 2
B33: GpH7-A5/GpH7-B3 variant S324_14T/GpL16-k0 (antibody, human IgG1, kappa)
heavy 1: not shown
heavy 2: not shown
light: B1 light
notes: He Ab; copies: 1 + 1 + 2
B34: GpH7-A5/GpH7-B3 variant S298_04F/GpL16-k0 (antibody, human IgG1, kappa)
heavy 1: not shown
heavy 2: not shown
light: B1 light
notes: He Ab; copies: 1 + 1 + 2
B35: GpH7-A5/GpH7-B3 variant S324_09D/GpL16-k0 (antibody, human IgG1, kappa)
heavy 1: not shown
heavy 2: not shown
light: B1 light
notes: He Ab; copies: 1 + 1 + 2
B36: GpH7-A5/GpH7-B3 variant S239_19Q/GpL16-k0 (antibody, human IgG1, kappa)
heavy 1: not shown
heavy 2: not shown
light: B1 light
notes: He Ab; copies: 1 + 1 + 2
B37: GpH7-A5/GpH7-B3 variant S324_03V/GpL16-k0 (antibody, human IgG1, kappa)
heavy 1: not shown
heavy 2: not shown
light: B1 light
notes: He Ab; copies: 1 + 1 + 2
B38: GpH7-A5/GpH7-B3 variant S324_12R/GpL16-k0 (antibody, human IgG1, kappa)
heavy 1: not shown
heavy 2: not shown
light: B1 light
notes: He Ab; copies: 1 + 1 + 2
B39: GpH7-A5/GpH7-B3 variant S267_10E/GpL16-k0 (antibody, human IgG1, kappa)
heavy 1: not shown
heavy 2: not shown
light: B1 light
notes: He Ab; copies: 1 + 1 + 2
B40: GpH7-A5/GpH7-B3 variant S324_08L/GpL16-k0 (antibody, human IgG1, kappa)
heavy 1: not shown
heavy 2: not shown
light: B1 light
notes: He Ab; copies: 1 + 1 + 2
B41: GpH7-A5/GpH7-B3 variant S298_19Q/GpL16-k0 (antibody, human IgG1, kappa)
heavy 1: not shown
heavy 2: not shown
light: B1 light
notes: He Ab; copies: 1 + 1 + 2
B42: GpH7-A5/GpH7-B3 variant S324_06M/GpL16-k0 (antibody, human IgG1, kappa)
heavy 1: not shown
heavy 2: not shown
light: B1 light
notes: He Ab; copies: 1 + 1 + 2
B43: GpH7-A5/GpH7-B3 variant S298_08L/GpL16-k0 (antibody, human IgG1, kappa)
heavy 1: not shown
heavy 2: not shown
light: B1 light
notes: He Ab; copies: 1 + 1 + 2
B44: GpH7-A5/GpH7-B3 variant S298_03V/GpL16-k0 (antibody, human IgG1, kappa)
heavy 1: not shown
heavy 2: not shown
light: B1 light
notes: He Ab; copies: 1 + 1 + 2

molecular target: T1, FcγRIIIa extracellular domain, C-terminal His tag (human, UniProt P08637 17-208); test: SPR, binding activity relative to GpH7-A5/GpH7-B3/GpL16-k0 (=100)
T1 construct: extracellular domain; also called 3a
T1 sequence (P08637 other isoform, or with tags, fused parts or gaps): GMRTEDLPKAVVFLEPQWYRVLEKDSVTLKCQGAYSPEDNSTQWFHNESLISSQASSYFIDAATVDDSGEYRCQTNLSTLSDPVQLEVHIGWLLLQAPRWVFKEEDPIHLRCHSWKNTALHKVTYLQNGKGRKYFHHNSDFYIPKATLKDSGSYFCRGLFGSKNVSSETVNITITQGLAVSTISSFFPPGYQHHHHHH

Row | Binder | He/Con 3a [%]
1 | B1 | 73.9
2 | B2 | 52.1
3 | B3 | 113
4 | B4 | 171
5 | B5 | 106
6 | B6 | 90.2
7 | B7 | 156
8 | B8 | 62.7
9 | B9 | 99.3
10 | B10 | 87.2
11 | B11 | 51.4
12 | B12 | 74.9
13 | B13 | 65.3
14 | B14 | 64.3
15 | B15 | 110
16 | B16 | 149
17 | B17 | 101
18 | B18 | 93
19 | B19 | 104
20 | B20 | 113
21 | B21 | 90
22 | B22 | 80.6

Row | Binder | He/Con 3a [%]
23 | B23 | 90.7
24 | B24 | 52
25 | B25 | 114
26 | B26 | 71.9
27 | B27 | 53.3
28 | B28 | 50
29 | B29 | 179
30 | B30 | 75
31 | B31 | 151
32 | B32 | 108
33 | B33 | 112
34 | B34 | 77.6
35 | B35 | 110
36 | B36 | 53.8
37 | B37 | 101
38 | B38 | 98.1
39 | B39 | 90.9
40 | B40 | 95.5
41 | B41 | 70.6
42 | B42 | 124
43 | B43 | 69.2
44 | B44 | 103
